This is an account of results in the nanobody polyreactivity screen of Harvey et al. (2022).

The nature of the data set: yeast display, Sf9 membrane polyspecificity reagent, FACS + sequencing; frameworks hold sequencing errors. Summed up: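 A nanobody's polyreactivity label depends on the gate it was sorted from. Yeast display cells were stained with 10% biotinylated, detergent-solubilized Sf9 membrane reagent for 1 hour at 4 °C, enriched on streptavidin microbeads and sorted by FACS. The low and high (top ~1%) gates were set on anti-HA fluorescence for expression and streptavidin fluorescence for reagent binding.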
For “QVQLVESGVGLVQAGGSLRLSCAASGRIFRLYAMGWYRQAPGKERELVAAISSSGGDTYYADSVKGRFTISRDNAKNTVYLQMNSLKPEDTAVYDCNARKRYANVHYNYWGQGTQVTVSS”, the “polyreactivity (PSR sort gate)” value is listed as “high polyreactivity”.
As to “QVQLVESGVGLVQAGGSLRLSCAASGRIFTSNAMGWYRQAPGKERELVAAIHRGGSTYYADSVKGRFTISRDNAKNTVYLQMNSLKPEDTAVYYCNAYRKSARSGGHYDYWGQGTQVTVSS”, the “polyreactivity (PSR sort gate)” value is recorded as “low polyreactivity”.
With “QVQLVESGVGLVQAGGSLRLSCAASGRIFYGYAMGWYRQAPGKEREFVARINVSGTSTFYADSVKGRFTISRDNAKNTVYLQMSSLKPEDTAVYDCAARGLPPNDYCYVHGYIMDYWGQGTQVTVSS” the entry was “low polyreactivity”; with “QVQLVESGVGLVQAGGSLRLSCAASGRIFYRNAMGWYRQAPGKEREFVAAITFRSGGTYYADSVKGRFTISRDNAKNTVYLQMNSLKPEDTAVYYCATRYLGASRYGYWGQGTQVTVSS”, “high polyreactivity”.
With “QVQLVESGVGLVQAGGSLRLSCAASGRILYPNTMGWYRQAPGKERELVAAISGSGYRTYYADSVKGRFTISRDNAKNTVYLQMNSLKPEDTAVYYCAASGYWPFRSGFGYWGQGTQVTVSS” the entry was “high polyreactivity”.
“QVQLVESGVGLVQAGGSLRLSCAASGRTFAIYTMGWYRQAPGKERELVARISIRGGSTYYADSVKGRFTISRDTAKITFYLQLTSLKPEDNAVYYCAAVGYFGGYRYDYWGQGTQVSVSS”: the “polyreactivity (PSR sort gate)” value is reported as “high polyreactivity”.
The same measure for “QVQLVESGVGLVQAGGSLRLSCAASGRTFDVYAMGWYRQAPGKERELVAAISRGGSTYYADSVKGRFTISRDNAKNTVYLQMNSLKPEDTAVYYCNKAYSSTRGYGYWGQGTQVTVSS”: “high polyreactivity”.
Take “QVQLVESGVGLVQAGGSLRLSCAASGRTFPYYAMGWYRQAPGKERELVAAISRRGASTYYADSVKGRFTISRDNAKNTVYLQINSLKPEDTAVYYCNAVYRGYYSGELDYWGQGTQVTVSS”: the “polyreactivity (PSR sort gate)” value was “high polyreactivity”.
For “QVQLVESGVGLVQAGGSLRLSCAASGRTFRSYTMGWYRQAPGKERELVAAINRGDRTYADSVKGRFTISRDNAKNTVYLQMNSLKPEDTAVYYCNARYYTHRYDYWGQGTQVTVSS”, the “polyreactivity (PSR sort gate)” value is “high polyreactivity”.
With “QVQLVESGVGLVQAGGSLRLSCAASGRTFSRNAMGWYRQAPGKERELVAAISRSGGSTYYADSVKGRFTISRDNAKNTVYLQMNSLKPEDTAVYYCNADVYSTYYNYNYWGQGTQVTVSS” the entry was “high polyreactivity”.
The same measure for “QVQLVESGVGLVQAGGSLRLSCAASGSIFEYYTMGWYRQAPGKERELVAAISSDGSTNYADSVTGRFTISRDDAKTTVYLQMISLKPEDTAVDYCASSTSRFYYYRKRGYWGQGTQVTVSS”: “low polyreactivity”; for “QVQLVESGVGLVQAGGSLRLSCAASGSIFTYYAMGWYRQAPGKEREFVAGISWSGGRTYYADSVKGRFTISRDNAKNTVYLQMNSLKPEDTAVYYCNRQYRYIPSPCDYWGQGTQVTVSS”: “low polyreactivity”; for “QVQLVESGVGLVQAGGSLRLSCAASGSIFYRYAMGWYRQAPGKEREFVARITSSGGSTNYADSVKGRFTISRDNAKNTVYLQMNSLKPEDTAVYYCAKRGWSSYGRYDSWGQGTQVTVSS”: “high polyreactivity”.
As for “QVQLVESGVGLVQAGGSLRLSCAASGSISQGNAMGWYRQAPGKERELVAANRWTSGRTYYADSVKGRFTISRDIAKNTVYLQMNSLKPEDTAEYYCAAYYVYYTPTLFDRVYWGQGSQVTVSS”, the “polyreactivity (PSR sort gate)” value is “low polyreactivity”.
As to “QVQLVESGVGLVQAGGSLRLSCAASGSTFRGYAMGWYRQAPGKERELVAAISGIGGSTYYADSVKGRFTISRDNAKNTVYLQMNSLKPEDTAVYYCNAVSGDSGDYWGQGTQVTVSS”, the “polyreactivity (PSR sort gate)” value is given as “low polyreactivity”.
Regarding “QVQLVESGVGLVQAGGSLRLSCAASGSTFTANAMGLYRQAPGKERELVAAISSTGGSTYYADSVKGRFTISRDNEKNTVYLQMNSLKPEDTAVYYCNKDGPYQVITYDYWGQGTKVTVSS”, the “polyreactivity (PSR sort gate)” value was “high polyreactivity”.
In the case of “QVQLVESGVGLVQAGGSLRLSCAASGSTFVYMGWYRQAPGKEREFVAAITWSGGSTYYADSVKGRFTISRDNAKNTVYLQMNSLKPEDTAVYYCNAVSVFPGWARYYYWGQGTQVTVSS”, the “polyreactivity (PSR sort gate)” value is given as “low polyreactivity”.
The same measure for “QVQLVESGVGLVQAGGSLRLSCAASGSTFYRYAMGWYRQAPGKERELVAAIRGSGGRTYYADSVKGRFTISRDNAKNTVYLQMNSLKPEDTAVYYCAAYRGVSQKGDYWGQGTQVTVSS”: “high polyreactivity”.
With “QVQLVESGVGLVQAGGSLRLSCAASGSTFYVYTMGWYRQAPGKERELVAAISLSGDNTYYADSVKGRFTISRDNAKNTVYLQMNSLKPEDTAVYYCAADVFYSPSAQKYDSWGQGTQVTVSS” the entry was “low polyreactivity”; with “QVQLVESGVGLVQAGGSLRLSCAASGYIFFGNAMGWYRQAPGKERELVAAIRWRGTSTYYADSVKGRFTISRDNAKNTVYLQMNSLKPEDTAVYYCAADVVRSNFYGTFLYDYDYWGQGTQVTVSS”, “low polyreactivity”.
In the case of “QVQLVESGVGLVQAGGSLRLSCAAYGSIFDGYAMGWYRPAPGKEREFVATITVSGGRSYYADSVKGSFTISRDNANNTVYLEMNSLKPEDTAVYYGNVDVFYYPHRYDYWGQGTQVTVSS”, the “polyreactivity (PSR sort gate)” value is listed as “high polyreactivity”.
With “QVQLVESGVGLVQAGGSLRLSCAHSGRIFFKNTMGWYRQAPGKERELVAAITSSGSSTYYADSVKGRFTISRDNAMNTVYLQMNSLKPEDTAVYYCNADYGFSFYWYDFWGHGTQVTVSS”, the “polyreactivity (PSR sort gate)” value is given as “low polyreactivity”.
The same measure for “QVQLVESGVGLVQAGGSLRLSCASSGRILTYYAMGWYRQAPGKERELVASISSNGGTYYADSVKGRFTISRDNAKNTVYLQMNSLKPEDTAVYYCNAKRVARYQYGASYNYWGQGTQVTVSS”: “high polyreactivity”; for “QVQLVESGVGLVQAGGSLRLSCSASGIIFDDYAMGWYRQAPGKERELVAAISRRGGSTYYADSVKGRFTISRDNAKNTVYLQMNSLKPEDTAVYYCAATTRTYSLYNYWGQGTHVTVSS”: “high polyreactivity”; for “QVQLVESGVGLVQAGGSLRLSCSASGSIFDYYAMGWYRQAHGKERELVAAISWRGGRTYYADSVKGRFTISRDNAKNTVYLQMNSLNPVDTAVYYCNTQEPYYESDYWGLGTQVTVSS”: “high polyreactivity”.
The same measure for “QVQLVESGVGLVQAGGSLRLSCSASGSTFYTYAMGWYRQAPGKDRELVAAINLRGGRTYYADSVKGRFTISRDTAKNTVYLQMNSRKPEDTAVYYCAAQSIAYYKQIYYLGMDYWGQGTQVTVSS”: “high polyreactivity”; for “QVQLVESGVGLVQAGGSLRLSFASSGRIFPTNAMGSYSQAPRKEREFVPAITWRGGSTYYADSVKGRFTISRDNAKNTVYLQINSLKPEDTAVYYCAATGHIVFFRAYDYGYWGQGTQVTVSS”: “low polyreactivity”.
With “QVQLVESGVGLVQAGGSLRLTCAASGRIFVRNAMGWYRQAPGKEMELVARITSSTGRTYYADSVKGRFTISRDNAKNTVYLQFTSLKPEDTAVYYCAVRYFYQFWAYDYWGKGTQVTVSS” the entry was “high polyreactivity”; with “QVQLVESGVGLVQAGGSLRLTCAASGSIFTAYPMGSYRQAPGKERELVAAISRSGGRTYYADSVKGRFTISRDNAQITVNFQFNSLKPEDTAVYNCAAASRSTNYNYYYWGLGTQVTVSS”, “high polyreactivity”.
Turning to “QVQLVESGVGLVQAGGSLRVSCAASGSTIPIYAMGWYRQAPGKERELVAVISRSGGITYYADSVKGRFTISRDNAKNTVYLQMNSLKPEDTAVYYCNARTRGWTPDRGYWGQGTQVTVSS”, the “polyreactivity (PSR sort gate)” value is “high polyreactivity”.
Turning to “QVQLVESGVGLVQAGGSLSLSCAASGCTLRYYVMGWYRQAPGKERELVASISWSGDSTYYADSVKGRFTISRDNAKNTVYLQMNSLKPEDTAVYYCAARRWYVHYFAYGYWGQGTQVTVSS”, the “polyreactivity (PSR sort gate)” value is “low polyreactivity”.
As to “QVQLVESGVGLVQAGGSLSLSCAATGRIFNSYMGWYRQAPGKERELDAAISWSSGTSTYYADSVKGRFTISRDNAKNTVYLQMNSLKPEDTAVYYCNADDYYGPYPEEYDYWGQGTQVTVSS”, the “polyreactivity (PSR sort gate)” value was “low polyreactivity”.
For “QVQLVESGVGLVQAGGSLSLSCASSGFIFSANDMGWYRPAPGKERELVADIDSSGRTNYADSVKGRVTISRDNAKNTVYLQMNSLKPEDTAVYYCATPPDDTGGGYRGYDYWGQGTQVTVSS”, the “polyreactivity (PSR sort gate)” value is on record as “low polyreactivity”.
The same measure for “QVQLVESGVGLVQAGGSRRLSCAASGRTFFDNVMGWYRQAPGKERELVAAIRSAGTTYYADSVKGRFTISRDNAKNTVYLQMNRLKPEDTAVYYCAATNRYYWSYFYQAKYGYWGQGTQVTVSS”: “low polyreactivity”; for “QVQLVESGVGLVQAGGTLRLSCAASGFIFRKYGMGWYRQAPGKERELVAAIRFTGGSTRYADSVKGRFTISRDNAKNTVYLQMNSLIPEDTAVYYCNADRVYVRGRFTYDYWGQGTQVTVSS”: “low polyreactivity”; for “QVQLVESGVGLVQAGGTLRLSCAASGSIFDPYAMGWYRQAPGKERELVAAITYSVGGTTYYADSVKGRFTISRDNAKNTVYLQMNSLKPEDTAVYYCAAEWWGNPFDYWGQGTQVTVST”: “high polyreactivity”.
Turning to “QVQLVESGVGLVQAVGSLRISCAASGRIFQPYAMGWYRQAPGNERELVARITRRGVSTYYADSVKGRFTISRENAKNTVYLQMNSLKPEDTAVYYCAAELFGGYYYWGLGTQVTVSS”, the “polyreactivity (PSR sort gate)” value is “high polyreactivity”.
As for “QVQLVESGVGVVQAGGSLRLSCAASGSTYVDNAMGWYRQAPGKERELVAGNSWSGASTYYADSVKGRFTISRDNAKNTFYLQMNSLKAEDTAVYYCATRVRAYYHQSWGYTERVYWGQGTQVTVSS”, the “polyreactivity (PSR sort gate)” value is “high polyreactivity”.
Turning to “QVQLVESGVVLVQAGGSLPLSCSASGRIFIHYAMGWYRQAPGKERELVAAISASGGTTNYADSVKGRFTISRDNAKNTVYLQMNSLKPEDTAVYYCAAEGYRSWRGLRSRYYYWGEGTQVTVSS”, the “polyreactivity (PSR sort gate)” value is “high polyreactivity”.
Regarding “QVQLVESPGGLVQAGGSLRLSCAASGSIFGSYAMGWYRQEPGKEREFVAVITSASTNYADSVKGRFTISRDNAKNTVNLQLNSLKPEDTAVYYCNKRGTRIRRTNKSHGVDYWGQGTQVTVSS”, the “polyreactivity (PSR sort gate)” value is listed as “low polyreactivity”.
Regarding “QVQLVESRAGLVQAGGSLRLSCAASGNIFDIYAMGWYRQAPGKERELVAAISSGGSTYYADSVKGRFTISRDNAKNTVYLQLNSLKPEDTAVYYCAESRVGYYRYEYWGQGNQVTVSS”, the “polyreactivity (PSR sort gate)” value was “low polyreactivity”.
